Experiments:
[1] = biological target: T1, human PD-L1 on CHO-K1-huPD-L1 cells (human, UniProt Q9NZQ7 19-290); assay: cell-based or functional assay
[2] = biological target: T2, human PD-L1-moFc recombinant protein (human); assay: flow cytometry, blocking of PD-L1-moFc binding to CHO-K1-huPD-1 cells
T2 construct: also called free PD-L1
Experimental: The antibodies to be tested were diluted with 3-fold gradient, added at 20 μL/well into the 96-well plate with the antigen added, mixed well, and incubated at room temperature for 15 min. CHO-K1-huPD-1 cells overexpressing human PD-1 were added at 2×10⁴/well into the 96-well plate pre-incubated with antigen-antibody, mixed well, and incubated at room temperature for 15 min. The mixture was centrifuged at 300 g for 5 min, the supernatant was removed, and the cells were washed twice with FACS buffer. Anti-moFc-Alexa 488 (Item No.: 115-545-071, Jackson) secondary antibodies were diluted at 1:300, added, mixed well, and incubated at room temperature for 15 min. The cells were washed three times and measured on instrument for the fluorescence intensity on their surfaces.

[3] = biological target: T3, recombinant human PD-L1 protein (Item No. 10084-H08H, Sino Biological) (human, UniProt Q9NZQ7 19-238); assay: SPR, Biacore 8K, antibody captured as ligand, PD-L1 analyte, 1:1 model
T3 construct: Bought protein; also called huPD-L1; human PD-L1 antigen
T3 sequence (Q9NZQ7 19-238 limits assumed): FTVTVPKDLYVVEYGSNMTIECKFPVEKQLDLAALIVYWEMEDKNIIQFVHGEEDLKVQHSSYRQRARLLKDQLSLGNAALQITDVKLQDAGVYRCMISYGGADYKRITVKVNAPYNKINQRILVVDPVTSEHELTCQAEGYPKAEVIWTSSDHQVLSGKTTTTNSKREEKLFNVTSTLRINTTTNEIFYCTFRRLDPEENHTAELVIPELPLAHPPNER

Cynomolgus PD-L1 = Cynomolgus PD-L1 (cynomolgus); assay: as above
Rabbit PD-L1 = biological target: T4, Rabbit PD-L1 (rabbit, UniProt G1SUI3 19-238); assay: as above
T4 sequence: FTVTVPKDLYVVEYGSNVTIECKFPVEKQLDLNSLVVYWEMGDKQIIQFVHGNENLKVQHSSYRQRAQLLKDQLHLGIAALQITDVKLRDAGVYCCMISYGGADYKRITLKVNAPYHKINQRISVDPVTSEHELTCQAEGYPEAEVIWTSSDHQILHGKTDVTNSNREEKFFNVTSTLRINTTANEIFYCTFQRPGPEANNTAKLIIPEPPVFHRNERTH

[4] = biological target: T1, human PD-L1 on CHO-K1-huPD-L1 cells; assay: flow cytometry on CHO-K1-huPD-L1 cells; humanized antibody 900760
Experimental: CHO-K1-huPD-L1 cells overexpressing human PD-L1 were plated in a 96-well plate at 2×10⁴/well, and the 3-fold serial gradient dilutions of the samples to be tested were added at 20 μl/well, and co-incubated with the cells at room temperature for 30 min. The cells were washed by centrifugation to remove unbound antibodies, and 20 μl of R-Phycoerythrin AffiniPure Goat Anti-Human IgG, Fcγ Fragment Specific (Item No.: 109-115-098, Jackson ImmunoResearch; diluted with 1% (w/v) BSA-PBS at 1:200) fluorescent secondary antibodies were added to each well, and incubated for 15 min. The cells were then washed twice, resuspended in 100 μl of 1% (w/v) BSA-PBS, and detected for their fluorescence intensity at 585 nm by flow cytometry (BD, FACS Cantoll) under 488 nm excitation.

[5] = biological target: T3, recombinant human PD-L1 protein (Item …); assay: SPR, humanization screening
[6] = biological target: T3, recombinant human PD-L1 protein (Item …); assay: ELISA, humanization screening

T1 sequence (Q9NZQ7 19-290): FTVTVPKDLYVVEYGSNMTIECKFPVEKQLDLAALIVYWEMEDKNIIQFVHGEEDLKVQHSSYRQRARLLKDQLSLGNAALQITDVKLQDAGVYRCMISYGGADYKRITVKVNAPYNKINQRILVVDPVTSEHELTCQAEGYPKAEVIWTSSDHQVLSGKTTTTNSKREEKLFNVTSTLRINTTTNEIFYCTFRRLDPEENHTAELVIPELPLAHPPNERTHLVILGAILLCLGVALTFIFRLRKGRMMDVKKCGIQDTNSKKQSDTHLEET
T2 sequence (chain, as listed by the source limits assumed): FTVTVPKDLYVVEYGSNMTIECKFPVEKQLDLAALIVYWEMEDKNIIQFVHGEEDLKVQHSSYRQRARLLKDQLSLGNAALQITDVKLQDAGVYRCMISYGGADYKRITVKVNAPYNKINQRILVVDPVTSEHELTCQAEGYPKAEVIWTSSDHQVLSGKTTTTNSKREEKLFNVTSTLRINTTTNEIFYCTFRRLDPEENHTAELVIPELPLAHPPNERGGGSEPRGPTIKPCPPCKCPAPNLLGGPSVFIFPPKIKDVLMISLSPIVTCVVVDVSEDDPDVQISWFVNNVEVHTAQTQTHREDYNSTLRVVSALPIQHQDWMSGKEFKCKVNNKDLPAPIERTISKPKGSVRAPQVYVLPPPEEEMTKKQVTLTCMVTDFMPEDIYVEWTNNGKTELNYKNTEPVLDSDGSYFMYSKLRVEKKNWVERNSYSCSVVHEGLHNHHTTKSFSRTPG

B1: humanized anti-PD-L1 antibody No. 900760 (antibody, V domains shown)
VH: QVQLVQSGAEVKKPGASVKVSCKASGYTFTDYYINWVRQAPGQRLEWIGWIYLGSGNAKYSQKFQGRVTITVDTSASTAYMELSSLRSEDTAVYYCARSVGTYWYFDVWGQGTTVTVSS
VL: QIQLTQSPSSLSASVGDRVTMTCSASSSVSYMHWYQQKPGKAPKPWIYDTSNVASGFPARFSGSGSGTDYTLTISSMQPEDFATYYCHQRSSYPWTFGQGTKLEIK
EC50, T cell activation (NFAT-luciferase RLU, Jurkat-NFAT-PD-1-5B8 effector cells with CHO-K1-OS8-PD-L1-8D6 target cells) [1]: 0.416 µg/mL
IC50 [2]: 2.27 µg/mL
Kd [3]: 0.459 nM
koff [3]: 0.000158 s⁻¹
kon [3]: 345000 M⁻¹ s⁻¹
Kd (Cynomolgus PD-L1): 0.695 nM
koff (Cynomolgus PD-L1): 0.000138 s⁻¹
kon (Cynomolgus PD-L1): 198000 M⁻¹ s⁻¹
Kd (Rabbit PD-L1): 14 nM
koff (Rabbit PD-L1): 0.00235 s⁻¹
kon (Rabbit PD-L1): 167000 M⁻¹ s⁻¹
EC50 [4]: 0.075 µg/mL

B2: 900245Ab-H2L2 (antibody, human IgG1, kappa, L234A L235A, V domains shown)
VH: QIQLVQSGAEVKKPGASVKVSCKASGYTFTDYYINWVRQAPGQRLEWIGWIYLGSGNAKYNEKFKGRATLTVDTSASTAYMELSSLRSEDTAVYYCARCVGTYWYFDVWGQGTTVTVSS
VL: DIQLTQSPSSLSASVGDRVTITCSASSSVSYMHWYQQKPGKAPKPWIYDTSNVQSGFPSRFSGSGSGTDYTLTISSLQPEDFATYYCHQRSSYPWTFGQGTKLEIKR
notes: Humanized; huVH2 + huVL2 on human IgG1 / Ig kappa constants
Kd [5]: 0.816 nM
EC50 [6]: 0.514 µg/mL

B3: 900245Ab-H1L1 (antibody, human IgG1, kappa, L234A L235A, V domains shown)
VH: QIQLVQSGAEVKKPGASVKISCKASGYTFTDYYINWVRQAPGQRLEWIGWIYLGSGNAKYNEKFKGKATLTVDTSASTAYMELSSLRSEDTAVYFCARCVGTYWYFDVWGQGTTVTVSS
VL: QIQLTQSPSSLSASVGDRVTMTCSASSSVSYMHWYQQKPGKAPKPWIYDTSNVASGFPARFSGSGSGTDYTLTISSMQPEDFATYYCHQRSSYPWTFGQGTKLEIKR
notes: Humanized
Kd [5]: 0.596 nM
EC50 [6]: 0.361 µg/mL

B4: 900245Ab-H2L1 (antibody, human IgG1, kappa, L234A L235A, V domains shown)
VH: QIQLVQSGAEVKKPGASVKVSCKASGYTFTDYYINWVRQAPGQRLEWIGWIYLGSGNAKYNEKFKGRATLTVDTSASTAYMELSSLRSEDTAVYYCARCVGTYWYFDVWGQGTTVTVSS
VL: QIQLTQSPSSLSASVGDRVTMTCSASSSVSYMHWYQQKPGKAPKPWIYDTSNVASGFPARFSGSGSGTDYTLTISSMQPEDFATYYCHQRSSYPWTFGQGTKLEIKR
notes: Humanized; huVH2 + huVL1 on human IgG1 / Ig kappa constants
Kd [5]: 0.639 nM
EC50 [6]: 0.385 µg/mL

B5: 900245Ab-H3L1 (antibody, human IgG1, kappa, L234A L235A, V domains shown)
VH: QIQLVQSGAEVKKPGASVKVSCKASGYTFTDYYINWVRQAPGQRLEWIGWIYLGSGNAKYSQKFQGRATLTVDTSASTAYMELSSLRSEDTAVYYCARCVGTYWYFDVWGQGTTVTVSS
VL: QIQLTQSPSSLSASVGDRVTMTCSASSSVSYMHWYQQKPGKAPKPWIYDTSNVASGFPARFSGSGSGTDYTLTISSMQPEDFATYYCHQRSSYPWTFGQGTKLEIKR
notes: Humanized; huVH3 + huVL1 on human IgG1 / Ig kappa constants
Kd [5]: 0.576 nM
EC50 [6]: 0.381 µg/mL

B6: 900245Ab-H3L2 (antibody, human IgG1, kappa, L234A L235A, V domains shown)
VH: QIQLVQSGAEVKKPGASVKVSCKASGYTFTDYYINWVRQAPGQRLEWIGWIYLGSGNAKYSQKFQGRATLTVDTSASTAYMELSSLRSEDTAVYYCARCVGTYWYFDVWGQGTTVTVSS
VL: DIQLTQSPSSLSASVGDRVTITCSASSSVSYMHWYQQKPGKAPKPWIYDTSNVQSGFPSRFSGSGSGTDYTLTISSLQPEDFATYYCHQRSSYPWTFGQGTKLEIKR
notes: Humanized; huVH3 + huVL2 on human IgG1 / Ig kappa constants
Kd [5]: 0.764 nM
EC50 [6]: 0.787 µg/mL

B7: 900245Ab-H3L3 (antibody, human IgG1, kappa, L234A L235A, V domains shown)
VH: QIQLVQSGAEVKKPGASVKVSCKASGYTFTDYYINWVRQAPGQRLEWIGWIYLGSGNAKYSQKFQGRATLTVDTSASTAYMELSSLRSEDTAVYYCARCVGTYWYFDVWGQGTTVTVSS
VL: DIQLTQSPSSLSASVGDRVTITCSASSSVSYMHWYQQKPGKAPKLLIYDTSSLQSGVPSRFSGSGSGTDYTLTISSLQPEDFATYYCHQRSSYPWTFGQGTKLEIKR
notes: Humanized; huVH3 + huVL3 on human IgG1 / Ig kappa constants
Kd [5]: 10.4 nM
EC50 [6]: 8.7 µg/mL

B8: 900245Ab-H4L1 (antibody, human IgG1, kappa, L234A L235A, V domains shown)
VH: QVQLVQSGAEVKKPGASVKVSCKASGYTFTDYYINWVRQAPGQRLEWIGWIYLGSGNAKYNEKFKGRVTITVDTSASTAYMELSSLRSEDTAVYYCARSVGTYWYFDVWGQGTTVTVSS
VL: QIQLTQSPSSLSASVGDRVTMTCSASSSVSYMHWYQQKPGKAPKPWIYDTSNVASGFPARFSGSGSGTDYTLTISSMQPEDFATYYCHQRSSYPWTFGQGTKLEIKR
notes: Humanized; huVH4 + huVL1 on human IgG1 / Ig kappa constants
Kd [5]: 0.726 nM
EC50 [6]: 0.589 µg/mL

B9: 900245Ab-H4L2 (antibody, human IgG1, kappa, L234A L235A, V domains shown)
VH: QVQLVQSGAEVKKPGASVKVSCKASGYTFTDYYINWVRQAPGQRLEWIGWIYLGSGNAKYNEKFKGRVTITVDTSASTAYMELSSLRSEDTAVYYCARSVGTYWYFDVWGQGTTVTVSS
VL: DIQLTQSPSSLSASVGDRVTITCSASSSVSYMHWYQQKPGKAPKPWIYDTSNVQSGFPSRFSGSGSGTDYTLTISSLQPEDFATYYCHQRSSYPWTFGQGTKLEIKR
notes: Humanized; huVH4 + huVL2 on human IgG1 / Ig kappa constants
Kd [5]: 1.97 nM
EC50 [6]: 1.31 µg/mL

B10: 900245Ab-H4L3 (antibody, human IgG1, kappa, L234A L235A, V domains shown)
VH: QVQLVQSGAEVKKPGASVKVSCKASGYTFTDYYINWVRQAPGQRLEWIGWIYLGSGNAKYNEKFKGRVTITVDTSASTAYMELSSLRSEDTAVYYCARSVGTYWYFDVWGQGTTVTVSS
VL: DIQLTQSPSSLSASVGDRVTITCSASSSVSYMHWYQQKPGKAPKLLIYDTSSLQSGVPSRFSGSGSGTDYTLTISSLQPEDFATYYCHQRSSYPWTFGQGTKLEIKR
notes: Humanized; huVH4 + huVL3 on human IgG1 / Ig kappa constants
Kd [5]: 43.7 nM
EC50 [6]: ~1520 µg/mL

B11: 900245Ab-H5L1 (antibody, human IgG1, kappa, L234A L235A, V domains shown)
VH: QVQLVQSGAEVKKPGASVKVSCKASGYTFTDYYINWVRQAPGQRLEWIGWIYLGSGNAKYSQKFQGRVTITVDTSASTAYMELSSLRSEDTAVYYCARSVGTYWYFDVWGQGTTVTVSS
VL: QIQLTQSPSSLSASVGDRVTMTCSASSSVSYMHWYQQKPGKAPKPWIYDTSNVASGFPARFSGSGSGTDYTLTISSMQPEDFATYYCHQRSSYPWTFGQGTKLEIKR
notes: Humanized; huVH5 + huVL1 on human IgG1 / Ig kappa constants, screening batch from ExpiCHO-s cells; also called CoAD1445
Kd [5]: 0.645 nM
EC50 [6]: 0.502 µg/mL

B12: 900245Ab-H5L2 (antibody, human IgG1, kappa, L234A L235A, V domains shown)
VH: QVQLVQSGAEVKKPGASVKVSCKASGYTFTDYYINWVRQAPGQRLEWIGWIYLGSGNAKYSQKFQGRVTITVDTSASTAYMELSSLRSEDTAVYYCARSVGTYWYFDVWGQGTTVTVSS
VL: DIQLTQSPSSLSASVGDRVTITCSASSSVSYMHWYQQKPGKAPKPWIYDTSNVQSGFPSRFSGSGSGTDYTLTISSLQPEDFATYYCHQRSSYPWTFGQGTKLEIKR
notes: Humanized; huVH5 + huVL2 on human IgG1 / Ig kappa constants
Kd [5]: 1.67 nM
EC50 [6]: 0.991 µg/mL

B13: 900245Ab-H5L3 (antibody, human IgG1, kappa, L234A L235A, V domains shown)
VH: QVQLVQSGAEVKKPGASVKVSCKASGYTFTDYYINWVRQAPGQRLEWIGWIYLGSGNAKYSQKFQGRVTITVDTSASTAYMELSSLRSEDTAVYYCARSVGTYWYFDVWGQGTTVTVSS
VL: DIQLTQSPSSLSASVGDRVTITCSASSSVSYMHWYQQKPGKAPKLLIYDTSSLQSGVPSRFSGSGSGTDYTLTISSLQPEDFATYYCHQRSSYPWTFGQGTKLEIKR
notes: Humanized; huVH5 + huVL3 on human IgG1 / Ig kappa constants
Kd [5]: 30.9 nM
EC50 [6]: ~1410 µg/mL

— patent publication US20250074988A1 (SHANGHAI HUAOTA BIOPHARMACEUTICAL, published 2025)
